Test results published in patent publication US20250042994A1 (HAINAN SIMCERE ZAIMING PHARMACEUTICAL, published 2025).

T1: cynomolgus monkey CD19 on peripheral blood B cells (cynomolgus monkey (Macaca fascicularis), UniProt A0A2K5W8L9 20-557)
T1 construct: whole, on cells; also called cynomolgus monkey B cells
T1 sequence: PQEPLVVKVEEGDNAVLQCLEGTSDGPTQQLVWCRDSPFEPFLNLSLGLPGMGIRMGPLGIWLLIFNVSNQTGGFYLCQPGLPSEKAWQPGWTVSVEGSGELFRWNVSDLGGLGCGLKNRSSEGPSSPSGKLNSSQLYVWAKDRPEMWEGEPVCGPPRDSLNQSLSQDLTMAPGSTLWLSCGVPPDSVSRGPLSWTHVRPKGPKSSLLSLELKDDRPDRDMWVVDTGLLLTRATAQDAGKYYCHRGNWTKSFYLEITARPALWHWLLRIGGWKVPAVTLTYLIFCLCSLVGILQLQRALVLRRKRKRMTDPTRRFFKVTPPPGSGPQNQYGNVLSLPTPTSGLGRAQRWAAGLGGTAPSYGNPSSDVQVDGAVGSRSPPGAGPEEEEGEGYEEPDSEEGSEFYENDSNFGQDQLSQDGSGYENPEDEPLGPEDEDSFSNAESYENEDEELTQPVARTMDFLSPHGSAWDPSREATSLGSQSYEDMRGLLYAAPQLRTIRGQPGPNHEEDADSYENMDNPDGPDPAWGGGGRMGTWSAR

T2: human CD19 on CHO-K1-human CD19 cells (human, UniProt P15391 20-556)
T2 construct: whole, on cells; also called CHO-K1-human CD19-2C8
T2 sequence (looked up): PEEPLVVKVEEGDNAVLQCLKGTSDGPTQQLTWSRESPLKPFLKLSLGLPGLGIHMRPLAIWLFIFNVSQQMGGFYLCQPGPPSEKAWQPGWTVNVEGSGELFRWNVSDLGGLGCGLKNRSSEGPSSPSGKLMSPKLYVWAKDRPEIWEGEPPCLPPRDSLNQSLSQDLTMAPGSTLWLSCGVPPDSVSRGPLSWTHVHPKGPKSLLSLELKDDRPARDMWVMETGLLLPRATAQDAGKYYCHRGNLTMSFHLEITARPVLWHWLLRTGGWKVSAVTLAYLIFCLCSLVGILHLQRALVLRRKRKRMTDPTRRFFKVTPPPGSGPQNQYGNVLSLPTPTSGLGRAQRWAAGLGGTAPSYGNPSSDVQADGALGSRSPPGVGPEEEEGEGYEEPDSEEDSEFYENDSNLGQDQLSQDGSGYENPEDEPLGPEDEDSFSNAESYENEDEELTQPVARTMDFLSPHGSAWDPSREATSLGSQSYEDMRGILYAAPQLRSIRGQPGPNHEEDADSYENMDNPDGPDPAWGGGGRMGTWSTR

T3: human CD19 on Raji cells (human, UniProt P15391 20-556)
T3 construct: whole, on cells
T3 sequence (looked up): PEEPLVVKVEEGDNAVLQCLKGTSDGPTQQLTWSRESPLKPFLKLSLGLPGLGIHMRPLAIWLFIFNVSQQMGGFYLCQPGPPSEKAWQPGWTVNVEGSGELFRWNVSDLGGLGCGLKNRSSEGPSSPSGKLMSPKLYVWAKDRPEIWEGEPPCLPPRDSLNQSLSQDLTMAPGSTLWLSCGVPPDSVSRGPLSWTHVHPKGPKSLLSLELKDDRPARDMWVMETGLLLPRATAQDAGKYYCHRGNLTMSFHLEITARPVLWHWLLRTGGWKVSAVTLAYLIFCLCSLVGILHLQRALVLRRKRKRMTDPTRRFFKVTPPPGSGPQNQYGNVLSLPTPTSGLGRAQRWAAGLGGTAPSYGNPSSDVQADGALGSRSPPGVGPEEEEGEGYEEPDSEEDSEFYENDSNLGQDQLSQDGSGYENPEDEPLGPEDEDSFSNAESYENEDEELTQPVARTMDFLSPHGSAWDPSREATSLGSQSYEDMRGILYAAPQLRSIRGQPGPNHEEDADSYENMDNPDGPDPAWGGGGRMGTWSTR


What was measured:
[1] = target: T1, cynomolgus monkey CD19 on peripheral …; assay: FACS, cynomolgus PBMC, CD20+ B cells
[2] = target: T2, human CD19 on CHO-K1-human CD19 cells; assay: FACS on CHO-K1-human CD19 cells
human CD19 on Raji cells = target: T3, human CD19 on Raji cells; assay: FACS on Raji cells
[3] = target: T4, monkey CD19 on HEK293T-monkey CD19 cells (monkey); assay: FACS on HEK293T-monkey CD19 cells
T4 construct: whole, on cells
How it was run: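 Antibody binding was read as MFI by flow cytometry and EC50 was taken from curve fitting. Before that, cells at 2×10⁶ cells/ml in PBS with 2% (w/w) BSA were exposed to samples for 2 h on ice and washed. Parental HEK293T cells were tested the same way.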

| Binder | Proportion of chimeric antibody positive cells to B cells (%) at 1 nM [1] [%] | Proportion of chimeric antibody positive cells to B cells (%) at 10 nM [1] [%] | Proportion of chimeric antibody positive cells to B cells (%) at 100 nM [1] [%] | EC50 [2] [nM] | Maximum mean fluorescence intensity [2] | EC50 (human CD19 on Raji cells) [nM] | Maximum mean fluorescence intensity (human CD19 on Raji cells) | EC50 [3] [nM] | Maximum mean fluorescence intensity [3] |
| --- | --- | --- | --- | --- | --- | --- | --- | --- | --- |
| F3.133.14 (antibody, human IgG1, V domains shown, human-murine chimeric antibody, human IgG1) VH: QVQLQQPGAELVMPGASVKLSCKASGYTFTNYWMHWVKQRPGQGLEWIGEIDPSDYYANYNQKFKGKATLTVDKSSSTAYMQLSSLTSEDSAVYYCARSHYYANSYNYWGQGTTLTVSS VL: EIELTQSPTTMAASPGEKITITCSASSSISSDYLHWYQQKPGFSPKLLIYRTSNLASGLPARFSGSGSGTSYSLTIGTMEAEDVATYYCQQGSSVPRMLTFGAGTKLELK | 1 | 1 | 7 | 0.82 | 63100 | 0.93 | 34400 | 2.47 | 138000 |
| F4.4.6 (antibody, human IgG1, V domains shown, human-murine chimeric antibody, human IgG1) VH: QVQLQQSGAELARPGASVKLSCKASGYTFTSYWMQWVKQRPGQGLEWIGAIYPGDGDSRYTQKFKGKATLTADKSSSTAYMQLSSLASEDSAVYYCARSTTTVLGNNFEYWGQGTTLTVSS VL: QIVLTQSPAIMSALPGEKVTMTCSASSSVSSMHWYQQKSGTSPKRWIYDTSKLASGVPARFSGSGSGTSYSLTISSMEAEDAATYYCQQWSSNPWTFGGGTKLEIK | 2 | 2 | 3 | 0.08 | 14800 | 0.56 | 26000 | – | 662 |
| F4.18.13 (antibody, human IgG1, V domains shown, human-murine chimeric antibody, human IgG1) VH: QVQLQQSGPELVKPGASVKISCKASGYAFSSFWMNWVKQRPGEGLEWIGRIYPGDGDTNYNGKFKGKATLTADDSSSTAYMQLSSLTSVDSAVYFCAREVIAAVVTTDFDYWGQGTTLTVSS VL: DIQMTQTTSSLSASLGDRVTISCRTSQDISNYLNWYLQKPDGTVKLLIYYTSGLHSGVPSRFSGSGSGTDYSLTISNLEPEDIATYFCQQGKTLPYTFGGGTKLEIK | 2 | 8 | 21 | 0.6 | 51600 | 1.31 | 35200 | 26.2 | 19700 |
| F4.21.2 (antibody, human IgG1, V domains shown, human-murine chimeric antibody, human IgG1) VH: QVQLKQSGPGLVQPSQSLSITCTVSGFSLSTYGVHWVRQSPGRGLEWLGVIWIGGTTDYNAAFISRLTISKDNSRGQVFFKMDSLQANDTAIYYCARKGYYKYDGGYYYAMDYWGQGTSVTVSS VL: DIQMTQSSSYLSVSLGGRVTITCKASDHINNWLAWYQQKPGNAPWLLISGATSLETGVPSRFSGSGSGKDYTLSISSLQTEDVATYYCQQYWSTPLTFGAGTKLELK | 2 | 3 | 18 | 1.02 | 52600 | 2.69 | 30800 | 9.1 | 39200 |
| F4.22.6 (antibody, human IgG1, V domains shown, human-murine chimeric antibody, human IgG1) VH: QVQLQQSGPELVKPGASVKISCKASGYAFSSFWMNWVKQRPGQGLEWIGRIYPGDGDTNYNGKFKGKATLTADKSSTTAYMHLSSLTSVDSAVYFCTRSVITAVVDWYFDVWGAGTTVTVSS VL: QIVLSQSPAILSASPGEKVTLTCRASSSVNFMHWYQQKPGSSPKPWIYATSNLASGAPARFSGSGSGTSYSLTISRVEAEDAAAYYCQQWSSYPIFTFGSGTKLEIK | 2 | 2 | 12 | 0.1 | 14700 | 0.67 | 27300 | ~129 | 7380 |
| F4.33.12 (antibody, human IgG1, V domains shown, human-murine chimeric antibody, human IgG1) VH: QVQLQQSGAELVRPGSSVKISCKGSGYAFSSYWMNWVKQRPGQGLEWIGQIYPGDGDTNYNGKFKGKATLTADKSSSTAYMQLSSLTSEDSAVYFCARAGFYYGSDSSMDYWGQGTSVTVSS VL: not shown | 1 | 1 | 2 | 1.47 | 52500 | 2.6 | 28200 | – | 50 |
| F4.35.5 (antibody, human IgG1, V domains shown, human-murine chimeric antibody, human IgG1) VH: EIQLQQSGPELVKPGASVKVSCKASGYAFTSYNMYWVKQSHGKSLEWIGYIDPYNGDTRYNQKFKGKATLTVDKSSSTAYMHLNSLTSEDSAVYYCTRSGTGRDYWGQGTTLTVSS VL: QIVLTQSPAIMSASPGEKVTMTCSASSSISYMFWFQQKPGSSPRLLIYDTSSLASGVPVRFSGSGSGTSYTLTISRMEAEDAATYYCQQWSNYPYTFGGGTKLEMK | 1 | 2 | 3 | 1.08 | 50000 | 0.69 | 25000 | – | 70 |
| F4.37.6 (antibody, human IgG1, V domains shown, human-murine chimeric antibody, human IgG1) VH: QVQLQQSGAELARPGASVKLSCKASGYTFTSFWMQWLKQRPGQGLEWIGTIYPGDGDTRYTQKFKGKATLTADKSSNTAYMQLSSLASEDSAVYYCARGALSNYGGFAYWGQGTLVTVSA VL: NIVLTQSPASLAVSLGQRATISCRASESVDSYGHSFMHWYQQKPGQPPKLLIYLASNLESGVPARFSGSGSRTDFTLTIDPVEADDAATYYCQQNNEDPWTFGGGTKLEIK | 2 | 2 | 6 | ~0.035 | 8490 | 0.51 | 24600 | – | 58 |
| F4.41.1 (antibody, human IgG1, V domains shown, human-murine chimeric antibody, human IgG1) VH: QVQLQQSGAELVRPGTSVKVSCKASGYAFTNYLIEWVKQRPGQGLEWIGVINPGSGDTLYNEKFKGKATLTADKSSTTAYMQLSGLTSDVSAIYFCARSPPITTIVADYFDYWGQGTTLTVSS VL: DIQMTQTTSSLSASLGDRVTISCRASQDISNYLNWYQQKPDGTVKLLIYYTSRLHSGVPSRFSGSGSGADYSLTISNLEQEDIATYFCQQGKTLPYTFGGGTKLEIK | 1 | 2 | 2 | 1.49 | 48600 | 1.02 | 23400 | – | 545 |
| F4.48.12 (antibody, human IgG1, V domains shown, human-murine chimeric antibody, human IgG1) VH: QMQLKESGPGLVAPSQSLSITCTVSGFSLTDYGVSWIRQPPGKGLEWLGVIWGSGSTFYNSALTSRLSISKDNSKSQVFLKMNSLQTADTAMYFCAKHHYYGGSFAMDYWGQGTSVTVSS VL: DIQMTQASSSLSASLGDRVTISCKTSQDISNYLNWYQQKPDGTFKLLIHYTSRLHSGVPSRFSGSGSGSDYSLTISNLEREDIATYFCQQGNSLPYTFGGGTKLEMK | 1 | 8 | 22 | 0.48 | 52700 | 0.55 | 29300 | 184 | 14300 |
